Experimental data published in patent publication US20240247080A1, “GLP1/GIP/NPY2 RECEPTOR TRIPLE AGONISTS” (Boehringer Ingelheim International GmbH, priority 2022, published 2024).
Residue numbers refer to the chain shown, from its start. Starred links: 1 amine or outer side, 2 acyl side, 3 side chain; linkers in the order of their positions; H or OH if unused. Non-standard residues stand in square brackets, D forms with d. Groups on a side chain read outwards from the residue. No end group written: not given here. *: point of attachment. C20 diacid = O=C(O)CCCCCCCCCCCCCCCCCCC(=O)*; C18 diacid = O=C(O)CCCCCCCCCCCCCCCCC(=O)*; γGlu = O=C(O)[C@H](CCC(=O)[*:2])N[*:1]; εLys = N[C@@H](CCCCN[*:1])C(=O)[*:2]; AEEA = NCCOCCOCC(=O)O; Aib = CC(C)(N)C(=O)O

T1: human GIP receptor (human, UniProt P48546 22-466)
T1 sequence (looked up): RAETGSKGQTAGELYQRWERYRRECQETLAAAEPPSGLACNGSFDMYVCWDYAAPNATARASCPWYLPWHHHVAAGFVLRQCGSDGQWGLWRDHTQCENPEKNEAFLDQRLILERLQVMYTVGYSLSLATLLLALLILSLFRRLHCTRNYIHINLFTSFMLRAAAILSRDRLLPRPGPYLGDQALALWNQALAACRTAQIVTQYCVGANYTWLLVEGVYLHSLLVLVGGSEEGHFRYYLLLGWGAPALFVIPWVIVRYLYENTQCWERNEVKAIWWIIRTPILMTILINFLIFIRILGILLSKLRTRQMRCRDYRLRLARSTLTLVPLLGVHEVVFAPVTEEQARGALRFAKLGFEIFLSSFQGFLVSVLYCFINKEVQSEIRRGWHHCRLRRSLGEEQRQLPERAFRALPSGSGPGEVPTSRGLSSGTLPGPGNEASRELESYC

T2: human neuropeptide Y2 (NPY2) receptor (human, UniProt P49146 1-381)
T2 sequence (looked up): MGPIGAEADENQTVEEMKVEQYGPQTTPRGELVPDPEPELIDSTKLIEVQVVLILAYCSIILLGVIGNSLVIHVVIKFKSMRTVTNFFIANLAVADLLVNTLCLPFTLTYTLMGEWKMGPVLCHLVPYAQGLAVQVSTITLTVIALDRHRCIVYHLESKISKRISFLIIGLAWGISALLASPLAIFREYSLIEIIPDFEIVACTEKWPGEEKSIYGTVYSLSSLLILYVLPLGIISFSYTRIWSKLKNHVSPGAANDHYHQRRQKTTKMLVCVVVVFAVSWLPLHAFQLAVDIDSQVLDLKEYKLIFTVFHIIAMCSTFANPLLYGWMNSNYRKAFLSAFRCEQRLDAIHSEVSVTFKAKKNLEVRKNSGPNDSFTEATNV

B1: Compound 6 (peptide)
peptide: Y[Aib]EGTFTSDYSI[Aib]LEKQAQ[Aib]AFVQWLIKGGQRYYASLRHYYNWLTRQRY-NH2
modifications: not fully specified (residue 28); also: TFA salt
B2: Compound 37 (peptide)
peptide: YXEGTFTSDYSIXLEKQAQXAFVQWLIKGGPESGASLRHYYNWLTRQRY
modifications: Aib at 2, 13, 20; K28 side chain: C20DA-gGlu-gGlu-gGlu-gGlu-gGlu-gGlu-eLys; C-terminal NH2
B3: Compound 44 (peptide)
peptide: B2 peptide with Q24E, E32S, A35Q, L37X
modifications: Aib at 2, 13, 20, 37; K28 side chain: C20DA-gGlu-gGlu-gGlu-gGlu-gGlu-gGlu-eLys; C-terminal NH2
B4: Compound 53 (peptide)
peptide: B2 peptide
modifications: Aib at 2, 13, 20; K28 side chain: C18DA-gGlu-gGlu-gGlu-gGlu-gGlu; C-terminal NH2
B5: Compound 41 (peptide)
peptide: B2 peptide with Q24E, E32S, G34P, A35Q
modifications: Aib at 2, 13, 20; K28 side chain: C20DA-gGlu-gGlu-gGlu-gGlu-gGlu-gGlu-eLys; C-terminal NH2
B6: Compound 46 (peptide)
peptide: B2 peptide with Q17E, A21K, Q24E, E32S
modifications: Aib at 2, 13, 20; K28 side chain: C20DA-gGlu-gGlu-gGlu-gGlu-gGlu-gGlu-eLys; C-terminal NH2
B7: Compound 5 (peptide)
peptide: B2 peptide with Q24E, E32S
modifications: Aib at 2, 13, 20; DLeu 37; DHis 39; DArg 46; DTyr 49; K28 side chain: C20DA-gGlu-gGlu-gGlu-gGlu-gGlu-gGlu-eLys; C-terminal NH2
B8: Compound 49 (peptide)
peptide: B2 peptide with Q24E, E32S, A35E, L37X
modifications: Aib at 2, 13, 20, 37; K28 side chain: C20DA-gGlu-gGlu-gGlu-gGlu-gGlu-gGlu-eLys; C-terminal NH2
B9: Compound 39 (peptide)
peptide: B2 peptide with Q24E, E32S, L37X
modifications: Aib at 2, 13, 20, 37; NMeR 48; K28 side chain: C20DA-gGlu-gGlu-gGlu-gGlu-gGlu-gGlu-eLys; C-terminal NH2
B10: Compound 50 (peptide)
peptide: B2 peptide with Q24E, E32S, G34Y, A35E
modifications: Aib at 2, 13, 20; K28 side chain: C20DA-gGlu-gGlu-gGlu-gGlu-gGlu-gGlu-eLys; C-terminal NH2
B11: Compound 48 (peptide)
peptide: B2 peptide with Q24E, E32S, S33E, G34P, A35Q, L37I
modifications: Aib at 2, 13, 20; K28 side chain: C20DA-gGlu-gGlu-gGlu-gGlu-gGlu-gGlu-eLys; C-terminal NH2
B12: Compound 51 (peptide)
peptide: B2 peptide with Q19E, E32S
modifications: Aib at 2, 13, 20; K28 side chain: C18DA-gGlu-gGlu-gGlu-gGlu-gGlu-gGlu-eLys; C-terminal NH2
B13: Compound 47 (peptide)
peptide: B2 peptide with E32S, A35V
modifications: Aib at 2, 13, 20; K28 side chain: C20DA-gGlu-gGlu-gGlu-gGlu-gGlu-gGlu-eLys; C-terminal NH2
B14: Compound 40 (peptide)
peptide: B2 peptide with Q24E, E32S, G34Y, A35V
modifications: Aib at 2, 13, 20; K28 side chain: C20DA-gGlu-gGlu-gGlu-gGlu-gGlu-gGlu-eLys; C-terminal NH2
B15: Compound 42 (peptide)
peptide: B2 peptide with Q24E, E32S, S33E, G34Y, A35V, L37I
modifications: Aib at 2, 13, 20; K28 side chain: C20DA-gGlu-gGlu-gGlu-gGlu-gGlu-gGlu-eLys; C-terminal NH2
B16: Compound 38 (peptide)
peptide: B2 peptide with Q24E, E32S, A35V, L37X
modifications: Aib at 2, 13, 20, 37; K28 side chain: C20DA-gGlu-gGlu-gGlu-gGlu-gGlu-gGlu-eLys; C-terminal NH2
B17: Compound 52 (peptide)
peptide: Y[Aib]EGTFTSDYSI[Aib]LEKQAQ[Aib]AFVQWLIK([AEEA-AEEA-Glu-Glu-Glu-Glu-C18 diacid])GGPESGASLRHYYNWLTRQRY-NH2
modifications: also: TFA salt
B18: Compound 43 (peptide)
peptide: Y[Aib]EGTFTSDYSI[Aib]LEKQAQ[Aib]EFVQWLIK([εLys-γGlu-γGlu-γGlu-γGlu-γGlu-γGlu-γGlu-C20 diacid])GGPSSGASLRHYYNWLTRQRY-NH2
modifications: also: TFA salt
B19: Compound 45 (peptide)
peptide: Y[Aib]EGTFTSDYSI[Aib]LEEQAQ[Aib]AFVQWLIK([εLys-AEEA-γGlu-γGlu-γGlu-γGlu-γGlu-C20 diacid])GGPSSGASLRHYYNWLTRQRY-NH2
modifications: also: TFA salt

Tests used:
Test in all cases: cell-based or functional assay
human GIP receptor = molecular target: T1, human GIP receptor
[1] = molecular target: T2, human neuropeptide Y2 (NPY2) receptor
human GLP-1 receptor = human GLP-1 receptor (human, UniProt P43220 24-463)

Binder	EC50, CreLuc assay, 0.5% hP (human GIP receptor)	EC50, CreLuc assay, 100% hP (human GIP receptor)	EC50, CreLuc assay, 0.5% hP [1]	EC50, CreLuc assay, 100% hP [1]	EC50, CreLuc assay, 0.5% hP (human GLP-1 receptor)	EC50, CreLuc assay, 100% hP (human GLP-1 receptor)
B1	2.99 nM	31.1 nM	16.9 nM	86.7 nM	0.9 nM	42.8 nM
B2	0.24 nM	1.44 nM	9.53 nM	35.5 nM	0.11 nM	5.13 nM
B3	0.05 nM	1.14 nM	9.35 nM	24.5 nM	0.07 nM	2.12 nM
B4	0.13 nM	1.38 nM	13.2 nM	50.6 nM	0.09 nM	3.46 nM
B5	0.07 nM	0.62 nM	10.2 nM	34.6 nM	0.06 nM	1.47 nM
B6	0.2 nM	1.21 nM	10.2 nM	36 nM	0.21 nM	5.94 nM
B7	0.17 nM	1.07 nM	> 99.9 nM	> 999 nM	0.11 nM	1.43 nM
B8	0.07 nM	1.25 nM	12.5 nM	36.8 nM	0.12 nM	2.08 nM
B9	0.06 nM	0.4 nM	26.9 nM	61.5 nM	0.09 nM	0.82 nM
B10	0.12 nM	1.47 nM	11.8 nM	52.5 nM	0.13 nM	3.75 nM
B11	0.07 nM	0.68 nM	9.77 nM	35.2 nM	0.07 nM	3.1 nM
B12	0.23 nM	1.37 nM	13.8 nM	42.2 nM	0.15 nM	4.66 nM
B13	0.25 nM	0.73 nM	7.9 nM	30.5 nM	0.07 nM	1.14 nM
B14	0.48 nM	4.36 nM	11.9 nM	26.4 nM	0.46 nM	9.04 nM
B15	0.15 nM	1.34 nM	8.82 nM	19.1 nM	0.36 nM	7.15 nM
B16	0.04 nM	0.7 nM	6.9 nM	17.8 nM	0.06 nM	1.28 nM
B17	0.12 nM	0.65 nM	18.7 nM	93.5 nM	0.09 nM	3.17 nM
B18	0.64 nM	1.97 nM	13.1 nM	21.1 nM	0.41 nM	5.91 nM
B19	0.14 nM	1.15 nM	17.2 nM	46.5 nM	0.11 nM	1.6 nM
